Test results from paper PMC5031971.

Target: T1, CCR7 (human) (UniProt P32248)
T1 sequence: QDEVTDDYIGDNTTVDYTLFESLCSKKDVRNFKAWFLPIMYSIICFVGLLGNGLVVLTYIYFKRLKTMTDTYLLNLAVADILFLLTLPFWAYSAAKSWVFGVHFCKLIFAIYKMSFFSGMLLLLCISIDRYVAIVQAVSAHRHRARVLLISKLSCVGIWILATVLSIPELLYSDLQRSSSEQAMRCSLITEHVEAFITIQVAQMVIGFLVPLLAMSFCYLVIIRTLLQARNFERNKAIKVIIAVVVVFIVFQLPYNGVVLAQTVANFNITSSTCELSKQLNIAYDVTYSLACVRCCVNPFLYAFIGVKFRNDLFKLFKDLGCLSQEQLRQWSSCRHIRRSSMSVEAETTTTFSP
Experiment: flow cytometry, live cells
Conditions: H9 cells (CCR7 positive), Cy3-RNA; 2'-F C and 2'-F U (all pyrimidines); Flow cytometry: 2.5e5 cells in 100 uL binding buffer, 30 min, room temperature; refolding/washing buffer DPBS pH 7.0-7.4, 1 mM CaCl2, 1 mM MgCl2, 2.7 mM KCl …

GGGAGGACGAUGCGGUGCCGCACAUUAGUCUCUGGUUGCCCACGCCAGACGACUCGCCCGA [DD9-9]
Kd: 111 nM

GGGAGGACGAUGCGGAAUUCGUCAAAGUCGUUUAUUUCGUCUGUGCAGACGACUCGCCCGA [C-2A]
Kd: 65.2 nM
